Test results from patent US20190330337A1, “Tunable Chimeric Antigen Receptors” (AUTOLUS LIMITED, priority 2016, published 2019).
“Also recorded” adds a separate entry of the source. Values belong to the molecule of their own block, whether it stands above or below them.

Experiments:
streptavidin = streptavidin (Streptomyces avidinii, UniProt P22629); conditions: biotin mimicking peptide binding streptavidin; read-out: affinity; cited from earlier work
[1] = test system: SupT1 cells engineered to express CD33; assay: Activation of TetCAR BW5 T-cells challenged with SupT1 cells expressing CD33; format: cell-based
Description: A bicistronic construct was expressed in BW5 T cells as a single transcript which self-cleaves at the 2A site to yield a signalling component which comprises TiP fused via a flexible linker to the endodomain of CD3-Zeta; and a receptor component which comprises a CD33 recognizing scFv, a spacer derived from the Fc domain of IgG1, a CD4 derived transmembrane and intracellular domain; and TetR (FIG. 19a). A control was also expressed which was identical except that TiP was absent from the signalling component (FIG. 19b).
The BW5 T-cells were challenged with wild-type SupT1 cells or SupT1 cells engineered to express CD33 in the absence of tetracycline or in the presence of increasing concentrations of tetracycline.
Control TetCAR which lacks the TiP domain was also transduced into BW5. Once again, these T-cells were challenged with wild-type SupT1 cells or SupT1 cells engineered to express CD33 in the absence or in the presence of increasing concentration of Tetracycline.

CD19 (human) = CD19 (human) (UniProt P15391); assay: SPR (Biacore T200), scFv-Fc captured on anti-IgG CM5 chip, interaction partner protein injected, 1:1 Langmuir fit
CD22 [2] = target: T1, CD22 (Homo sapiens, UniProt P20273); assay: as above
CD22 [3] = target: T1, CD22; assay: Biacore affinity determination of CD22 binders; format: binding; conditions: scFv format, FIG. 6, result in words
Experimental: A CD19-binder (CD19ALAb) was identified, humanised and the binding affinities of both murine and humanised IgGs and scFvs were identified and compared with the “gold-standard” anti-CD19 binder, fmc63. In parallel, and a CD22-binder (CD22ALAb) was identified, humanised and the binding affinities of both murine and humanised IgGs and scFvs were identified and compared with the “gold-standard” anti-CD22 binder, M971.
Experiments were performed on a Biacore T200 instrument using HBS-P as running and dilution buffer. BIAevaluation software Version 2.0 was used for data processing. For binding kinetics, mouse anti-human IgG or goat anti-mouse IgG was covalently coupled to a CM5 Sensor Chip. IgG or scFv-Fc proteins were captured, and various concentrations of interaction partner protein injected over the flow cell at a flow rate of 30 μl/min. Kinetic rate constants were obtained by curve fitting according to a 1:1 Langmuir binding model. Bulk refractive index differences were subtracted using a blank control flow cell in which capture antibody had been immobilized to the same level as the active surface. A double reference subtraction was performed using buffer alone.

Sequence of CD19 (human) (P15391 20-291 limits assumed): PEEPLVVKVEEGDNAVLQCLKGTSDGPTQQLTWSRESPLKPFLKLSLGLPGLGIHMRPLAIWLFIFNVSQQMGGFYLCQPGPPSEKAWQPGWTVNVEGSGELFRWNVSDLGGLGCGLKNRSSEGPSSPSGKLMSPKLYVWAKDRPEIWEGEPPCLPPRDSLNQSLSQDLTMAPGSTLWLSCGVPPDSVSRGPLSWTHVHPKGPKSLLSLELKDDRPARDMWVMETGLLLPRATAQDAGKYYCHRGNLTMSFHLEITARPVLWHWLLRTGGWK
Sequence of streptavidin (P22629 37-163 limits assumed): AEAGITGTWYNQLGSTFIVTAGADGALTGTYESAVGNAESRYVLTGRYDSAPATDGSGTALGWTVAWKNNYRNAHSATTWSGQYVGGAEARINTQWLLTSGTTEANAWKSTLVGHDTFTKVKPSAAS

Molecule: Biotin mimicking peptide WRHPQFGG (SEQ ID NO: 32) (Biotin mimicking peptide, streptag)
- Kd (streptavidin): 72000 nM

Molecule: CN(C)[C@@H]1C(O)=C(C(N)=O)C(=O)[C@@]2(O)C(O)=C3C(=O)c4c(O)cccc4[C@@](C)(O)[C@H]3C[C@@H]12 [tetracycline, reference compound]
- concentration of tetracycline at which activation is fully inhibited [1]: 100 nM

Molecule: Biotin mimicking peptide CHPQGPPC (SEQ ID NO: 35) (Biotin mimicking peptide, ccstreptag)
- Kd (streptavidin): 230 nM

Molecule: Biotin mimicking peptide DVEAWLGAR (SEQ ID NO: 31) (Biotin mimicking peptide, short nanotag)
- Kd (streptavidin): 17 nM

Molecule: Biotin mimicking peptide DVEAWLDERVPLVET (SEQ ID NO: 30) (Biotin mimicking peptide, long nanotag)
- Kd (streptavidin): 3.6 nM

- Kd (CD19 (human)): 1.85 nM
- koff (CD19 (human)): 0.000328 s⁻¹
- kon (CD19 (human)): 178000 M⁻¹ s⁻¹
B1: Murine CD19ALAb scFv (scFv, part only; not given: Fc part and VH-VL linker, not shown: another chain or arm of the molecule; a dimerising Fc or GST; small tags and cut ends)
scFv: QVQLQQSGAELVRPGSSVKISCKASGYAFSSYWMNWVKQRPGQGLEWIGQIWPGDGDTNYNGKFKGKATLTADESSSTAYMQLSSLASEDSAVYFCARRETTTVGRYYYAMDYWGQGTTVTVSSDIQLTQSPASLAVSLGQRATISCKASQSVDYDGDSYLNWYQQIPGQPPKLLIYDASNLVSGIPPRFSGSGSGTDFTLNIHPVEKVDAATYHCQQSTEDPWTFGGGTKLEIK

- Kd (CD22 [2]): 32 nM
- koff (CD22 [2]): 0.00226 s⁻¹
- kon (CD22 [2]): 68300 M⁻¹ s⁻¹
B2: Humanised CD22ALAb scFv (scFv, part only; not given: Fc part and VH-VL linker, not shown: another chain or arm of the molecule; a dimerising Fc or GST; small tags and cut ends)
scFv: EVQLVESGAEVKKPGSSVKVSCKASGYTFTNYWINWVRQAPGQGLEWIGNIYPSDSFTNYNQKFKDRATLTVDKSTSTAYLELRNLRSDDTAVYYCTRDTQERSWYFDVWGQGTLVTVSSDIVMTQSPATLSVSPGERATLSCRSSQSLVHSNGNTYLHWYQQKPGQAPRLLIYKVSNRFSGVPARFSGSGSGVEFTLTISSLQSEDFAVYYCSQSTHVPWTFGQGTRLEIK

B3: humanised CD22ALAb: Humanised CD22ALAb scFv, SEQ ID No. 26 (protein)
scFv: EVQLVESGAEVKKPGSSVKVSCKASGYTFTNYWINWVRQAPGQGLEWIGNIYPSDSFTNYNQKFKDRATLTVDKSTSTAYLELRNLRSDDTAVYYCTRDTQERSWYFDVWGQGTLVTVSSDIVMTQSPATLSVSPGERATLSCRSSQSLVHSNGNTYLHWYQQKPGQAPRLLIYKVSNRFSGVPARFSGSGSGVEFTLTISSLQSEDFAVYYCSQSTHVPWTFGQGTRLEIK
modifications: CAR, Humanised CD22ALAb scFv sequence
- binding affinity to CD22 (CD22 [3]): comparable binding affinity to CD22 to murine CD22ALAb; also recorded: significantly higher binding affinity to CD22 than the gold-standard CD22-binding antibody, M971

B4: murine CD22ALAb: Murine CD22ALAb scFv, SEQ ID No. 25 (protein)
scFv: QVQLQQPGAELVRPGASVKLSCKASGYTFTNYWINWVKQRPGQGLEWIGNIYPSDSFTNYNQKFKDKATLTVDKSSSTAYMQLSSPTSEDSAVYYCTRDTQERSWYFDVWGAGTTVTVSSDVVMTQTPLSLPVSLGDQASISCRSSQSLVHSNGNTYLHWYLQKPGQSPKLLIYKVSNRFSGVPDRFSGSGSGTDFTLKISRVEAEDLGLYFCSQSTHVPWTFGGGTKLEIK
modifications: CAR, Murine CD22ALAb scFv sequence
- binding affinity to CD22 (CD22 [3]): significantly higher binding affinity to CD22 than the gold-standard CD22-binding antibody, M971
